In patent publication US20230235040A1:

T1: hu-IL-36β (human IL-36β, N-terminally truncated active form R5-E157) (human)
T1 sequence: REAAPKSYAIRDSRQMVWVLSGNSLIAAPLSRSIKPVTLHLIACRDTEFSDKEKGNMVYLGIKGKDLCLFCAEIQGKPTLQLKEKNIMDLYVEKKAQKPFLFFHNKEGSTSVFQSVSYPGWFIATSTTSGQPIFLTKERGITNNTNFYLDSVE


Legend:
Test in all cases: ELISA, yeast Fab supernatant, anti-Fab-HRP
[1] = target: T1, hu-IL-36β (human IL-36β, N-terminally truncated active form R5-E157) (human)
[2] = target: hu-IL-36α (human IL-36α, N-terminally truncated active form K6-F158) (human) (UniProt Q9UHA7)
hu-IL-36α (human IL-36α, N-terminally truncated active form K6-F158) (human), sequence (Q9UHA7 6-158 limits assumed): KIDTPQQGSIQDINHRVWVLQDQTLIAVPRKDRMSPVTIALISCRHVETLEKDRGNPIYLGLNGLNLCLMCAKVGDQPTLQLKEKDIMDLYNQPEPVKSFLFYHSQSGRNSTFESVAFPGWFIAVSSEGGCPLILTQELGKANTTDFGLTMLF

[3] = target: hu-IL-36γ (human IL-36γ, N-terminally truncated active form S18-D169) (human) (UniProt Q9NZH8)
hu-IL-36γ (human IL-36γ, N-terminally truncated active form S18-D169) (human), sequence (Q9NZH8 18-169 limits assumed): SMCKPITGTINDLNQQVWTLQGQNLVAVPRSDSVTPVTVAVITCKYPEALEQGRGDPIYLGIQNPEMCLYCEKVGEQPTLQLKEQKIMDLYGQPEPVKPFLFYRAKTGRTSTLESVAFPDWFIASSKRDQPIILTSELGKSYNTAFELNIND

Binder | ELISA OD450 [1] | ELISA OD450 [2] | ELISA OD450 [3]
mAb2.0 Fab (yeast clone culture supernatant) (Fab, V domains shown) VH: QLQLQESGPGLVKPSETLSLTCTVSGGSISTSSYYWGWIRQPPGKGLEWIGSIYYTGNTYYNPSLKSRVTISVDTSKNQFSLKLSSVTAADTAVYYCARVRYGVGVPRYFDPWGQGTLVTVSS VL: QSVLTQPPSVSGAPGQRVTISCTGSSSNIGAHYDVHWYQQLPGTAPKLLIYGNDNRPSGVPDRFSGSKSGTSASLAITGLQAEDEADYYCQSYDYSLSGYVFGGGTKLTVL | 0.0604 OD450 | – | –
mAb3.0 Fab (yeast clone culture supernatant) (Fab, V domains shown) VH: QLQLQESGPGLVKPSETLSLTCTVSGGSISSTSYYWGWIRQPPGKGLEWIGSIHYSGNTYYNPSLKSRVTISVDTSKNQFSLKLSSVTAADTAVYYCARVHYGGYIPRRFDHWGQGTLVTVSS VL: QSVLTQPPSVSGAPGQRVTISCTGSSSNIGAGYDVHWYQQLPGTAPKLLIYGNTNRPSGVPDRFSGSKSGTSASLAITGLQAEDEADYYCQSYDYSLRGYVFGGGTKLTVL | 0.11 OD450 | – | –
mAb1.0 Fab (yeast clone culture supernatant) (Fab, V domains shown) VH: QVQLVESGGGVVQPGRSLRLSCAASGFSFSAYAMHWVRQAPGKGLEWVAVISYDGTNEYYADSVKGRFTISRDNSKNTLYLQMNSLRAEDTAVYYCARGIRIFTSYFDSWGQGTLVTVSS VL: QSVLTQPPSVSGAPGQRVTISCTGSSSNIGAHYDVHWYQQLPGTAPKLLIYSNNNRPSGVPDRFSGSKSGTSASLAITGLQAEDEADYYCQSYDYSLRGYVFGGGTKLTVL | 0.0523 OD450 | – | –

Now from value to binder:

ELISA OD450 [1] | ELISA OD450 [2] | ELISA OD450 [3] | Binder
– | 0.0638 OD450 | 0.0656 OD450 | mAb6.0 Fab (yeast clone culture supernatant) (Fab, V domains shown) VH: QLQLQESGPGLVKPSETLSLTCTVSGGSITSSNYYWGWIRQPPGKGLEWIGSIDYTGSTYYNPSLKSRVTISVDTSKNQFSLKLSSVTAADTAVYYCARGKYYETYLGFDVWGQGTLVTVSS VL: QSVLTQPPSVSGAPGQRVTISCTGSSSNIGAGYDVHWYQQLPGTAPKLLIYGNTNRPSGVPDRFSGSKSGTSASLAITGLQAEDEADYYCQSYDISLSGWVFGGGTKLTVL
0.0513 OD450 | – | – | mAb4.0 Fab (yeast clone culture supernatant) (Fab, V domains shown) VH: QLQLQESGPGLVKPSETLSLTCTVSGGSIGSRSYYWGWIRQPPGKGLEWIGSIHYSGTTYYNPSLKSRVTISVDTSKNQFSLKLSSVTAADTAVYYCARVAPSYPRVFDYWGQGTLVTVSS VL: QSVLTQPPSVSGAPGQRVTISCTGSSSNIGAGYDVHWYQQLPGTAPKLLIYGNRNRPSGVPDRFSGSKSGTSASLAITGLQAEDEADYYCQSYDYSLRVYVFGGGTKLTVL
– | 0.0698 OD450 | 0.073 OD450 | mAb8.0 Fab (yeast clone culture supernatant) (Fab, V domains shown) VH: QVQLVQSGAEVKKPGSSVKVSCKASGGTFSNYAISWVRQAPGQGLEWMGGILPILGTVDYAQKFQGRVTITADESTSTAYMELSSLRSEDTAVYYCAREPWYRLGAFDVWGQGTLVTVSS VL: DIQMTQSPSSLSASVGDRVTITCRASQTIYKYLNWYQQKPGKAPKLLIYAASSLQSGVPSRFSGSGSGTDFTLTISSLQPEDFATYYCQQYSSIPYTFGQGTKVEIK
– | 0.0604 OD450 | 0.0724 OD450 | mAb7.0 Fab (yeast clone culture supernatant) (Fab, V domains shown) VH: QVQLVESGGGVVQPGRSLRLSCAASGFTFSSYGMHWVRQAPGKGLEWVAVISYGGSERYYADSVKGRFTISRDNSKNTLYLQMNSLRAEDTAVYYCAREPWYSSRGWTGYGFDVWGQGTLVTVSS VL: EIVLTQSPGTLSLSPGERATLSCRASQSVSSNYLAWYQQKPGQAPKLLIYSASSLQSGVPSRFSGSGSGTDFTLTISSLQPEDFATYYCQQTYSYPPTFGQGTKVEIK
